Experimental data: paper PMC6116751, “An enzymatic system for decolorization of wastewater dyes using immobilized CueO laccase‐like multicopper oxidase on poly‐3‐hydroxybutyrate” (Microbial Biotechnology, 2018)

Substrate: COc1cccc(OC)c1O
Experiment: purified protein
Type: biochemical, Escherichia coli
Details: soluble enzyme, 20 mM Tris pH 6.5, 10 μM Cu2+, 30 °C

B1: BioF–CueO (CueO laccase-like multicopper oxidase fused to BioF tag) (Escherichia coli K-12) (protein)
chain: AERPTLPIPDLLTTDARNRIQLTIGAGQSTFGGKTATTWGYNGNLLGPAVKLQRGKAVTVDIYNQLTEETTLHWHGLEVPGEVDGGPQGIIPPGGKRSVTLNVDQPAATCWFHPHQHGKTGRQVAMGLAGLVVIEDDEILKLMLPKQWGIDDVPVIVQDKKFSADGQIDYQLDVMTAAVGWFGDTLLTNGAIYPQHAAPRGWLRLRLLNGCNARSLNFATSDNRPLYVIASDGGLLPEPVKVSELPVLMGERFEVLVEVNDNKPFDLVTLPVSQMGMAIAPFDKPHPVMRIQPIAISASGALPDTLSSLPALPSLEGLTVRKLQLSMDPMLDMMGMQMLMEKYGDQAMAGMDHSQMMGHMGHGNMNHMNHGGKFDFHHANKINGQAFDMNKPMFAAAKGQYERWVISGVGDMMLHPFHIHGTQFRILSENGKPPAAHRAGWKDTVKVEGNVSEVLVKFNHDAPKEHAYMAHCHLLEHEDTGMMLGFTV
notes: signal peptide absent (the primer starts at mature Ala-Glu-Arg-Pro-Thr); cueO amplified from pCueO (pASK-IBA3 derivative); plasmid pDB2 (pET-21d); expressed in E. coli BL21(DE3), butyl sepharose; tag kept
- Km: 400 ± 100 µM
- kcat: 4.3 ± 0.1 s⁻¹
- kcat/Km: 10700 M⁻¹ s⁻¹
